For test [1], the target named is streptokinase (Streptococcus pyogenes) (UniProt P10520). The test is described as follows: binding saturation. The note with it: cited from earlier work.
Test [2] concerns the target PAM, plasminogen-binding group A Streptococcus (GAS) M-protein (S. pyogenes) (UniProt P49054). The test is described as follows: SPR; PAM amine-coupled to a CM-5 chip (250 RU); hPg variants injected at 0.175-20 nM (up to 800 nM hPg [D219N]), multicycle kinetics, 180 s association, 300 s dissociation; HBS-EP+ (10 mM Na-Hepes/150 mM NaCl, 3 mM EDTA/0.05% polysorbate-20, pH 7.4), 25°C, Biacore X100; 1:1 Langmuir model. (SPR reads the build-up and loss of mass on a sensor chip optically.)
UniProt P49054, sequence (P49054 30-384): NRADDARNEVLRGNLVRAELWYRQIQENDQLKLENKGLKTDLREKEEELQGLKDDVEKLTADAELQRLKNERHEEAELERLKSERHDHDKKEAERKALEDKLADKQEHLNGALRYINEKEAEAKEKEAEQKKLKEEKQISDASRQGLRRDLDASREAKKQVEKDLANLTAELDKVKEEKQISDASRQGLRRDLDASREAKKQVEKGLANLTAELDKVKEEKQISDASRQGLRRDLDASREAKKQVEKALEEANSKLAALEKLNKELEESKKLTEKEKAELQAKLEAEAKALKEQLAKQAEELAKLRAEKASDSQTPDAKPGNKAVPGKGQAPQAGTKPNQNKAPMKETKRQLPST

The target is the same in test [3].
For test [4], the target named is wild-type (WT) Glu^1-hPg (human plasminogen) (human). As to the kind of experiment: SPR; each hPg variant amine-coupled to a CM-5 chip (~1200 RU); SK injected at 0.625-100 nM, multicycle kinetics, 90 s association, 120 s dissociation; HBS-EP+/50 μM NPGB, 25°C, Biacore X100; 1:1 Langmuir model.
Test [5] addresses hPg [D^139,413,518N] (human). The description is as above.
Test [6] addresses hPg [K^708A] (human). Described as above.
The target of test [7] is hPg [D^413N] (human). The description is as above.
Test [8] deals with hPg [D^139N] (human). Described as above.
Test [9] has as its target hPg [D^518N] (human). Described as above.
In test [10] the target is hPg [D^219N] (human). Described as above.

UniProt P10520, sequence (P10520 27-440): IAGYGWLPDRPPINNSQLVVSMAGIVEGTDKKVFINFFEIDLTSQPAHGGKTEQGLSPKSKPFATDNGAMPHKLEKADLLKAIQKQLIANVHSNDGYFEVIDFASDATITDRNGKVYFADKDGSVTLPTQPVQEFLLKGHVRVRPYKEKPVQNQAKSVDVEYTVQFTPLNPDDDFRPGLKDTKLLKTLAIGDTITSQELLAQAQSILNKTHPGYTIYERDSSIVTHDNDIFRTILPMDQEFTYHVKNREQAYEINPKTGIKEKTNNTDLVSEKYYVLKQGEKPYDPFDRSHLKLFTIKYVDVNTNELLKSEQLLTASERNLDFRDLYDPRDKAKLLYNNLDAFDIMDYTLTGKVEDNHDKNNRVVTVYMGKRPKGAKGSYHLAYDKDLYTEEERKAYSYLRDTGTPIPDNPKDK

For Glu1-plasminogen (from UniProt P00747), the Kd (as a rule, the equilibrium constant for the complex coming apart) in [1] is 0.5 nM.
For the substance hPg [D^139,413,518N] (natural protein), in [2], the Kd was found to be 0.7 nM; the koff (in general, the first-order rate constant of dissociation) was determined as 0.0017 s⁻¹; the kon (usually the rate constant with which the complex forms) was 2.51e+06 M⁻¹ s⁻¹.
On to hPg [D^139N] (natural protein), for which the rate of SK-mediated activation of hPg to hPm (S2251 hydrolysis), 250 nM PAM against 0 nM PAM in test [3] was found to be 4 fold. In [2], this substance showed a Kd of 4 nM, an off-rate constant (koff) of 0.0016 s⁻¹ and a kon of 410000 M⁻¹ s⁻¹.
In test [2], hPg [D^413N] (natural protein) returned a Kd of 0.7 nM, a koff of 0.00094 s⁻¹ and a kon of 1.34e+06 M⁻¹ s⁻¹.
The corresponding values for hPg [D^518N] (natural protein) are 6.7 nM, 0.0024 s⁻¹ and 360000 M⁻¹ s⁻¹.
The matching figures for hPg [K^708A] (natural protein): 1.2 nM, 0.0012 s⁻¹ and 970000 M⁻¹ s⁻¹.
Take “mini-plasminogen mini-hPg (lacking K1-K4) (from UniProt P00747)”: the Kd in [1] is 0.5 nM.
As for streptokinase (SK) (natural protein), the equilibrium dissociation constant (Kd) in test [4] came out at 0.29 nM; in [5] it was 2.1 nM; in [6] it was 0.21 nM; in test [7] it was 0.26 nM; in [8], 0.28 nM; in test [9] it was 0.27 nM. This substance also came in with a Kd in test [10] of 0.3 nM. The koff in test [4] is 0.000405 s⁻¹; in test [5], 0.000449 s⁻¹; in test [6], 0.000282 s⁻¹; in test [7], 0.000302 s⁻¹; in [8], 0.000302 s⁻¹; in test [9], 0.00034 s⁻¹. The substance also yielded a koff in test [10] of 0.000466 s⁻¹. The kon in test [4] was 1.39e+06 M⁻¹ s⁻¹; in test [5], 206000 M⁻¹ s⁻¹; in test [6] it was 1.36e+06 M⁻¹ s⁻¹; in [7], 1.22e+06 M⁻¹ s⁻¹; in test [8], 1.13e+06 M⁻¹ s⁻¹; in test [9], 1.29e+06 M⁻¹ s⁻¹. In test [10], this substance displayed a kon of 1.55e+06 M⁻¹ s⁻¹.
“wild-type (WT) Glu^1-hPg (human plasminogen) (natural protein)”: in test [3], the rate of SK-mediated activation of hPg to hPm (S2251 hydrolysis), 250 nM PAM against 0 nM PAM was found to be 4 fold. In test [2], this substance showed a Kd of 5.4 nM, a koff of 0.0013 s⁻¹ and a kon of 240000 M⁻¹ s⁻¹.
